Paper PMC11470055

Target: AP-DT/AA-LRRTM2 (UniProt O43300)
Test: immunostaining of cells or tissue; Nrxn-binding assay: live COS-7 cells expressing biotinylated AP-LRRTM2 (WT or mutants), BirA-ER and EGFP incubated 20 min with Nrxn solution (2 µg Nrxn-1β-Fc + 1.3 µg AlexaFluor647 anti-human Fc), then labelled with mSA-ATTO565 in Tyrode's solution (2 mM CaCl2, pH 7.4) and imaged live; Nrxn1β-Fc surface intensity normalised to AP-LRRTM2 expression

UniProt O43300, sequence (O43300 34-516 D259A/T261A): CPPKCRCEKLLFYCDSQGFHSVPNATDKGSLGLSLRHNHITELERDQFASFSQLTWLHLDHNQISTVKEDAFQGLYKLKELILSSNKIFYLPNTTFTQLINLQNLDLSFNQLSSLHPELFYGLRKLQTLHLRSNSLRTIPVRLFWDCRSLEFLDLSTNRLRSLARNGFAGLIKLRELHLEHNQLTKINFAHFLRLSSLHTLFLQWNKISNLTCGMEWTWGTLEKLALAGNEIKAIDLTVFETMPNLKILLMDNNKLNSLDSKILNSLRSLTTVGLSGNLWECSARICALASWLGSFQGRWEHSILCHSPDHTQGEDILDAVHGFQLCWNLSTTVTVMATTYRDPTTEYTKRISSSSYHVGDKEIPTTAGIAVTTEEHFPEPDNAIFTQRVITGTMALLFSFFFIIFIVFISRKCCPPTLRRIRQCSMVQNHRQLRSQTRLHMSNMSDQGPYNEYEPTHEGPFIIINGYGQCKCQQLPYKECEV

percent loss of Nrxn1β-Fc binding against AP-LRRTM2-WT: 50%
Substance: Nrxn1β-Fc (-SS4) (Fc fusion)
